Experimental data: PMC10397247
Read-outs that look alike come from different tables or passages of the source.

What was measured:
Assay in all cases: two-hybrid library CCNG1;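 further: natural log of median RNA to DNA barcode read ratio; higher means stronger binding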
O13-bS = target: T1, O13-bS
T1 chain: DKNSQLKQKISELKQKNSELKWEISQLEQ

O10-bS = target: T2, O10-bS; details: mean of both orientations
T2 chain: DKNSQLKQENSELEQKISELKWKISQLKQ

O11-bS = target: T3, O11-bS
T3 chain: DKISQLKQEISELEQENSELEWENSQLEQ

O8-bS = target: T4, O8-bS
T4 chain: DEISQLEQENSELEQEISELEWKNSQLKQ

O16-bS = target: T5, O16-bS
T5 chain: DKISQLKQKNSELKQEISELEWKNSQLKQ

O4-bS = target: T6, O4-bS
T6 chain: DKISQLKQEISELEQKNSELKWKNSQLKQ

O2-bS = target: T7, O2-bS
T7 chain: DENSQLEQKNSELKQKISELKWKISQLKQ

O6-bS = target: T8, O6-bS
T8 chain: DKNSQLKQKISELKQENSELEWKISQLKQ

O12-bS = target: T9, O12-bS
T9 chain: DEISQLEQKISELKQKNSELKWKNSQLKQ

O3-bS = target: T10, O3-bS
T10 chain: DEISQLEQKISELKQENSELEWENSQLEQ

O7-bS = target: T11, O7-bS
T11 chain: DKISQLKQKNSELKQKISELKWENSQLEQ

O15-bS = target: T12, O15-bS
T12 chain: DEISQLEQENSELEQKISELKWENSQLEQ

O5-bS = target: T13, O5-bS
T13 chain: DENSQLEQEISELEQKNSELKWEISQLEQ

O9-bS = target: T14, O9-bS
T14 chain: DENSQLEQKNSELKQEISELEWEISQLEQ

O14-bS = target: T15, O14-bS
T15 chain: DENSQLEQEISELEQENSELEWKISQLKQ

4H687-bN = target: T16, 4H687-bN
T16 chain: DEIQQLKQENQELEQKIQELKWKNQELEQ

4H454-bN = target: T17, 4H454-bN
T17 chain: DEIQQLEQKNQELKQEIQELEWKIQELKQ

4H338-bN = target: T18, 4H338-bN
T18 chain: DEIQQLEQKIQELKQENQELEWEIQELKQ

4H3427-bN = target: T19, 4H3427-bN
T19 chain: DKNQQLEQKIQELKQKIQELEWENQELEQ

4H953-bN = target: T20, 4H953-bN
T20 chain: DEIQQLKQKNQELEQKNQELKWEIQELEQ

4H908-bN = target: T21, 4H908-bN
T21 chain: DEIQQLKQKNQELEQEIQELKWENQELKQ

4H3354-bN = target: T22, 4H3354-bN
T22 chain: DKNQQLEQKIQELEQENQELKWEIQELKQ

4H2576-bN = target: T23, 4H2576-bN
T23 chain: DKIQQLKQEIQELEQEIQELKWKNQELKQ

4H2667-bN = target: T24, 4H2667-bN
T24 chain: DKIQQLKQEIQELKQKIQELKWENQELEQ

4H4001-bN = target: T25, 4H4001-bN
T25 chain: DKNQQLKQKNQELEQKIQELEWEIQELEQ

4H568-bN = target: T26, 4H568-bN
T26 chain: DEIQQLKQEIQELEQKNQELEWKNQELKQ

4H3782-bN = target: T27, 4H3782-bN
T27 chain: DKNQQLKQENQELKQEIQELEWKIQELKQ

4H2729-bN = target: T28, 4H2729-bN
T28 chain: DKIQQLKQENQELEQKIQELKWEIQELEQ

4H3185-bN = target: T29, 4H3185-bN
T29 chain: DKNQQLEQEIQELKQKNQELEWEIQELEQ

4H72-bN = target: T30, 4H72-bN
T30 chain: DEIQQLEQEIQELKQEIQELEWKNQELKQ

4H3112-bN = target: T31, 4H3112-bN
T31 chain: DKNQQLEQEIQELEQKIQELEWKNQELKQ

4H797-bN = target: T32, 4H797-bN
T32 chain: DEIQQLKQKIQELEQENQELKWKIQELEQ

4H967-bN = target: T33, 4H967-bN
T33 chain: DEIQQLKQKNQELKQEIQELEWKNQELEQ

4H717-bN = target: T34, 4H717-bN
T34 chain: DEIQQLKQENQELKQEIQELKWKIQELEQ

4H607-bN = target: T35, 4H607-bN
T35 chain: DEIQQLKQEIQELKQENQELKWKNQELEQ

4H2442-bN = target: T36, 4H2442-bN
T36 chain: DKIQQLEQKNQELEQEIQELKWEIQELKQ

4H2618-bN = target: T37, 4H2618-bN
T37 chain: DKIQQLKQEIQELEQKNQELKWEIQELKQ

4H1845-bN = target: T38, 4H1845-bN
T38 chain: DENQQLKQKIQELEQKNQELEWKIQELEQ

4H331-bN = target: T39, 4H331-bN
T39 chain: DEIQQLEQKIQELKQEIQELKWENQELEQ

4H2697-bN = target: T40, 4H2697-bN
T40 chain: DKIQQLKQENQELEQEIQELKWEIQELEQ

4H883-bN = target: T41, 4H883-bN
T41 chain: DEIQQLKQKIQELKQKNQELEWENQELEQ

4H3855-bN = target: T42, 4H3855-bN
T42 chain: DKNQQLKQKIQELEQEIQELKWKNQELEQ

4H1828-bN = target: T43, 4H1828-bN
T43 chain: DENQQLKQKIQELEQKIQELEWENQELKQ

4H918-bN = target: T44, 4H918-bN
T44 chain: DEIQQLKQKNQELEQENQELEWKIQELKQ

4H754-bN = target: T45, 4H754-bN
T45 chain: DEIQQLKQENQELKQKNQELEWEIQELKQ

4H3277-bN = target: T46, 4H3277-bN
T46 chain: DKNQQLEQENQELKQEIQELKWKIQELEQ

4H492-bN = target: T47, 4H492-bN
T47 chain: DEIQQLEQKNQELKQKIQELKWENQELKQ

4H319-bN = target: T48, 4H319-bN
T48 chain: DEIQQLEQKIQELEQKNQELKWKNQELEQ

4H2915-bN = target: T49, 4H2915-bN
T49 chain: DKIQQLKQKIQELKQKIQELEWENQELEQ

4H40-bN = target: T50, 4H40-bN
T50 chain: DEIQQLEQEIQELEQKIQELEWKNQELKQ

4H2223-bN = target: T51, 4H2223-bN
T51 chain: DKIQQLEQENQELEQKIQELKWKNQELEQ

4H477-bN = target: T52, 4H477-bN
T52 chain: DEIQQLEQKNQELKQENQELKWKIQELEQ

4H2839-bN = target: T53, 4H2839-bN
T53 chain: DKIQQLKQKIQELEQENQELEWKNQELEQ

4H2473-bN = target: T54, 4H2473-bN
T54 chain: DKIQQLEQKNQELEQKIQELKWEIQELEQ

4H2588-bN = target: T55, 4H2588-bN
T55 chain: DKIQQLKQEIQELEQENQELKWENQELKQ

4H2717-bN = target: T56, 4H2717-bN
T56 chain: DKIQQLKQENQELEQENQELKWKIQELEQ

4H2143-bN = target: T57, 4H2143-bN; details: mean of both orientations
T57 chain: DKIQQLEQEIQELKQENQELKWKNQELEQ

4H741-bN = target: T58, 4H741-bN
T58 chain: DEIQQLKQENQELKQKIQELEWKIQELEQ

4H2692-bN = target: T59, 4H2692-bN
T59 chain: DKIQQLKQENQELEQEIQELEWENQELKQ

4H2134-bN = target: T60, 4H2134-bN
T60 chain: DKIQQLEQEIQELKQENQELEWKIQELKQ

4H3057-bN = target: T61, 4H3057-bN
T61 chain: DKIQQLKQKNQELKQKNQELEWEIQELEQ

4H348-bN = target: T62, 4H348-bN
T62 chain: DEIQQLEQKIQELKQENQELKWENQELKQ

4H2503-bN = target: T63, 4H2503-bN
T63 chain: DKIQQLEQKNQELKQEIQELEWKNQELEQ

4H2438-bN = target: T64, 4H2438-bN
T64 chain: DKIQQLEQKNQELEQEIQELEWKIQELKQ

DKNSQLKQENSELEQKISELKWKISQLKQ [O10-bS]
interaction score (O13-bS): -0.797 | interaction score (O10-bS): -1.52 | interaction score (O11-bS): -2 | interaction score (O8-bS): -1.24 | interaction score (O16-bS): -0.405 | interaction score (O4-bS): -0.565 | interaction score (O2-bS): -1.55 | interaction score (O6-bS): -0.631 | interaction score (O12-bS): -2.63 | interaction score (O3-bS): -0.954 | interaction score (O7-bS): -0.783 | interaction score (O15-bS): 0.0876 | interaction score (O5-bS): -1.67 | interaction score (O9-bS; mean of both orientations): 0.492

DKISQLKQEISELEQENSELEWENSQLEQ [O11-bS]
interaction score (O13-bS): -0.61 | interaction score (O11-bS): -1.25 | interaction score (O8-bS): -3.31 | interaction score (O16-bS): -0.701 | interaction score (O14-bS): -2.92 | interaction score (O4-bS): 0.272 | interaction score (O2-bS): -0.471 | interaction score (O6-bS): -0.902 | interaction score (O12-bS): 1.88 | interaction score (O3-bS): -1.25 | interaction score (O7-bS): -1.17 | interaction score (O15-bS): -0.753 | interaction score (O5-bS): -2.35 | interaction score (O9-bS): -2.56

DENQQLKQKIQELEQKIQELEWENQELKQ [4H1828-bN]
interaction score (4H687-bN): -0.773 | interaction score (4H454-bN): -1.22 | interaction score (4H338-bN): -0.738 | interaction score (4H3427-bN): -0.728 | interaction score (4H953-bN): -0.334 | interaction score (4H908-bN): -1.28 | interaction score (4H3354-bN): -1.74 | interaction score (4H2576-bN): 1.52 | interaction score (4H2667-bN): 1.18 | interaction score (4H4001-bN): -0.709 | interaction score (4H568-bN): -0.67 | interaction score (4H3782-bN): 0.26 | interaction score (4H2729-bN): -0.165 | interaction score (4H3185-bN): -0.135 | interaction score (4H72-bN): 0.18 | interaction score (4H3112-bN): 0.443 | interaction score (4H797-bN): -1.07 | interaction score (4H967-bN): -0.704 | interaction score (4H717-bN): -0.318 | interaction score (4H607-bN): -0.0859 | interaction score (4H2442-bN): -0.746 | interaction score (4H2618-bN): 0.00935 | interaction score (4H1845-bN): -0.541 | interaction score (4H331-bN): 0.0332 | interaction score (4H2697-bN): -0.202 | interaction score (4H883-bN): -0.284 | interaction score (4H3855-bN): 0.0633 | interaction score (4H1828-bN): 1.19 | interaction score (4H918-bN): -1.16 | interaction score (4H754-bN): -2.15

DKIQQLEQEIQELKQENQELEWKIQELKQ [4H2134-bN]
interaction score (4H3277-bN): -0.911 | interaction score (4H492-bN): -1.68 | interaction score (4H319-bN): 0.833 | interaction score (4H2915-bN): -1.35 | interaction score (4H40-bN): -0.166 | interaction score (4H2223-bN): -0.162 | interaction score (4H477-bN): 0.581 | interaction score (4H2839-bN): 0.142 | interaction score (4H2473-bN): 0.214 | interaction score (4H2588-bN): -0.119 | interaction score (4H2717-bN): -0.26 | interaction score (4H2143-bN): 0.912 | interaction score (4H741-bN): 0.14 | interaction score (4H2692-bN): 0.473 | interaction score (4H2134-bN): 1.45 | interaction score (4H3057-bN): 0.93 | interaction score (4H348-bN): -0.138 | interaction score (4H2503-bN): -0.659 | interaction score (4H2438-bN): 0.477
